# Data published in FireProtDB (doi:10.1002/pro.5560030904).
# Several values for one entry are separate records, joined by “and”; a condition that tells them apart may be missing. Equal entries are not always repeated.
# B1: Fructose-bisphosphate aldolase A, P00883 (parent)
# chain: MPHSHPALTPEQKKELSDIAHRIVAPGKGILAADESTGSIAKRLQSIGTENTEENRRFYRQLLLTADDRVNPCIGGVILFHETLYQKADDGRPFPQVIKSKGGVVGIKVDKGVVPLAGTNGETTTQGLDGLSERCAQYKKDGADFAKWRCVLKIGEHTPSALAIMENANVLARYASICQQNGIVPIVEPEILPDGDHDLKRCQYVTEKVLAAVYKALSDHHIYLEGTLLKPNMVTPGHACTQKYSHEEIAMATVTALRRTVPPAVTGVTFLSGGQSEEEASINLNAINKCPLLKPWALTFSYGRALQASALKAWGGKKENLKAAQEEYVKRALANSLACQGKYTPSGQAGAAASESLFISNHAY
# Variants of: B1
# Conditions: Oryctolagus cuniculus; pH 7.4; Thermal; DSC; sodium phosphate 10 mM; transition: 3; reversible: yes; structure 1ADO; whole UniProt chain shown
Variant,Tm,"change of melting temperature, mutant - wild type (higher = more stable)",unfolding enthalpy (calorimetric)
MPHSHPALTPEQKKELSDIAHRIVAPGKGILAADESTGSIAKRLQSIGTENTEENRRFYRQLLLTADDRVNPCIGGVILFHETLYQKADDGRPFPQVIKSKGGVVGIKVDKGVVPLAGTNGETTTQGLAGLSERCAQYKKDGADFAKWRCVLKIGEHTPSALAIMENANVLARYASICQQNGIVPIVEPEILPDGDHDLKRCQYVTEKVLAAVYKALSDHHIYLEGTLLKPNMVTPGHACTQKYSHEEIAMATVTALRRTVPPAVTGVTFLSGGQSEEEASINLNAINKCPLLKPWALTFSYGRALQASALKAWGGKKENLKAAQEEYVKRALANSLACQGKYTPSGQAGAAASESLFISNHAY [D129A],46.8 °C,-11.9 °C,71 kcal/mol
MPHSHPALTPEQKKELSDIAHRIVAPGKGILAADESTGSIAKRLQSIGTENTEENRRFYRQLLLTADDRVNPCIGGVILFHETLYQKADDGRPFPQVIKSKGGVVGIKVDKGVVPLAGTNGETTTQGLVGLSERCAQYKKDGADFAKWRCVLKIGEHTPSALAIMENANVLARYASICQQNGIVPIVEPEILPDGDHDLKRCQYVTEKVLAAVYKALSDHHIYLEGTLLKPNMVTPGHACTQKYSHEEIAMATVTALRRTVPPAVTGVTFLSGGQSEEEASINLNAINKCPLLKPWALTFSYGRALQASALKAWGGKKENLKAAQEEYVKRALANSLACQGKYTPSGQAGAAASESLFISNHAY [D129V],43.9 °C and 46.5 °C,-11.8 °C and -12.2 °C,91 kcal/mol and 78 kcal/mol
MPHSHPALTPEQKKELSDIAHRIVAPGKGILAADESTGSIAKRLQSIGTENTEENRRFYRQLLLTADDRVNPCIGGVILFHETLYQKADDGRPFPQVIKSKGGVVGIKVDKGVVPLAGTNGETTTQGLGGLSERCAQYKKDGADFAKWRCVLKIGEHTPSALAIMENANVLARYASICQQNGIVPIVEPEILPDGDHDLKRCQYVTEKVLAAVYKALSDHHIYLEGTLLKPNMVTPGHACTQKYSHEEIAMATVTALRRTVPPAVTGVTFLSGGQSEEEASINLNAINKCPLLKPWALTFSYGRALQASALKAWGGKKENLKAAQEEYVKRALANSLACQGKYTPSGQAGAAASESLFISNHAY [D129G],44 °C and 46 °C,-11.7 °C and -12.7 °C,67 kcal/mol and 73 kcal/mol
MPHSHPALTPEQKKELSDIAHRIVAPGKGILAADESTGSIAKRLQSIGTENTEENRRFYRQLLLTADDRVNPCIGGVILFHETLYQKADDGRPFPQVIKSKGGVVGIKVDKGVVPLAGTNGETTTQGLNGLSERCAQYKKDGADFAKWRCVLKIGEHTPSALAIMENANVLARYASICQQNGIVPIVEPEILPDGDHDLKRCQYVTEKVLAAVYKALSDHHIYLEGTLLKPNMVTPGHACTQKYSHEEIAMATVTALRRTVPPAVTGVTFLSGGQSEEEASINLNAINKCPLLKPWALTFSYGRALQASALKAWGGKKENLKAAQEEYVKRALANSLACQGKYTPSGQAGAAASESLFISNHAY [D129N],45.6 °C and 47 °C,-10.1 °C and -11.7 °C,80 kcal/mol and 83 kcal/mol
MPHSHPALTPEQKKELSDIAHRIVAPGKGILAADESTGSIAKRLQSIGTENTEENRRFYRQLLLTADDRVNPCIGGVILFHETLYQKADDGRPFPQVIKSKGGVVGIKVDKGVVPLAGTNGETTTQGLQGLSERCAQYKKDGADFAKWRCVLKIGEHTPSALAIMENANVLARYASICQQNGIVPIVEPEILPDGDHDLKRCQYVTEKVLAAVYKALSDHHIYLEGTLLKPNMVTPGHACTQKYSHEEIAMATVTALRRTVPPAVTGVTFLSGGQSEEEASINLNAINKCPLLKPWALTFSYGRALQASALKAWGGKKENLKAAQEEYVKRALANSLACQGKYTPSGQAGAAASESLFISNHAY [D129Q],45.9 °C and 47.1 °C,-9.8 °C and -11.6 °C,67 kcal/mol and 77 kcal/mol
